The values below come from patent publication US20230147840A1 (Chugai, published 2023).

Assay [1] addresses T1, Human CD3eg linker (human).
T1 construct: Single-chain soluble construct; also called recombinant human CD3
T1 chain: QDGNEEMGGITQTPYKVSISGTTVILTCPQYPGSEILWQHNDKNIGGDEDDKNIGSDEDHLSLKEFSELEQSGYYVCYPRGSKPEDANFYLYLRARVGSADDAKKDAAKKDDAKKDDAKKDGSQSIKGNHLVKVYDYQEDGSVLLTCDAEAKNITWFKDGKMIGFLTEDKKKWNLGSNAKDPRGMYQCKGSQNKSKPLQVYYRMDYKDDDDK
As to the kind of experiment: SPR Biacore 8K, 25 C; reference xGPC3/DualAE05-xSG1350kSG1349hV11. On the procedure: (§1) Binding affinity of Dual-Ig antibodies to human CD3 were assessed at 25 degrees C. using Biacore 8K instrument (GE Healthcare). Anti-human Fc (GE Healthcare) was immobilized onto all flow cells of a CM4 sensor chip using amine coupling kit (GE Healthcare). Antibodies were captured onto the anti-Fc sensor surfaces, then recombinant human CD3 or CD137 was injected over the flow cell. All antibodies and analytes were prepared in ACES pH 7.4 containing 20 mM ACES, 150 mM NaCl, 0.05% Tween 20, 0.005% NaN₃. Sensor surface was regenerated each cycle with 3M MgCl₂. […] CD137 binding affinity assay was conducted in same condition except assay temperature was set at 37 degrees C.
This is caused by faster off rate in FAST-Ig construct. […] This is caused by faster off rate in FAST-Ig construct.

The target of assay [2] is T1, Human CD3eg linker. As to the kind of experiment: SPR Biacore 8K, Ab captured on anti-human Fc, CD3 as analyte, 25 C. On the procedure:
as §1
For orientation: In SPR one partner is held on a chip, and binding of the other changes the refractive index at the surface.

Assay [3] has as its target T2, Human CD137 extracellular domain (ECD) (human).
T2 construct: also called Human CD137 ECD; recombinant human CD137
Nature of the assay: SPR Biacore 8K, Ab captured on anti-human Fc, CD137 as analyte, 37 C. The protocol:
as §1

Assay [4] addresses T1, Human CD3eg linker. As to the kind of experiment: SPR (Biacore T200, 25 degrees C), in-tandem blocking assay; antibody captured on anti-human Fc, 8 µM hCD3eg injected as analyte. On the procedure: (§2) Biacore in-tandem blocking assay was performed to characterize non-simultaneous binding of Dual-Ig Ab for both CD3 and CD137. The assay was performed on Biacore T200 instrument (GE Healthcare) at 25 degrees C. in ACES pH 7.4 buffer containing 20 mM ACES, 150 mM NaCl, 0.05% Tween 20, 0.005% NaN₃. Anti-human Fc (GE Healthcare) was immobilized onto all flow cells of a CM4 sensor chip using amine coupling kit (GE Healthcare). Antibodies were captured onto the anti-Fc sensor surfaces, then 8 micro M CD3 was injected over the flow cell followed by an identical injection of 8 micro M CD137 in the presence of 8 micro M CD3. An increased of binding response for second injection was indicative of binding to different paratopes therefore a simultaneous binding interactions; whereas no enhancement or decreased of binding response for the 2nd injection was indicative of binding to the same or overlapping or adjacent paratopes, therefore a non-simultaneous binding interactions.

Assay [5] deals with T2, Human CD137 extracellular domain (ECD). As to the kind of experiment: SPR (Biacore T200, 25 degrees C), in-tandem blocking assay; antibody captured on anti-human Fc, first saturated with 8 µM hCD3eg, then 8 µM hCD137 injected in the presence of 8 µM hCD3eg. The protocol: as §2

T2 sequence (chain, as listed by the source limits assumed): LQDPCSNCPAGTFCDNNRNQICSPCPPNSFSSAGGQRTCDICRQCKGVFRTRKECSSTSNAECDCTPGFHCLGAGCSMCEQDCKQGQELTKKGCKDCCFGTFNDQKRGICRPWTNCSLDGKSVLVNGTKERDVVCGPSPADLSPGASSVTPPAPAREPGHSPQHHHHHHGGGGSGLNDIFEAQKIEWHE

B1: GPC3EK/DualAE05KE-SG1365k1363hV11 (bispecific antibody, V domains shown)
VH 1: QVQLVQSGAEVKKPGASVTVSCKASGYTFTDYEMHWIREPPGEGLEWIGAIDGPTPDTAYSEKFKGRVTLTADKSTSTAYMELSSLTSEDTAVYYCTRFYSYTYWGQGTLVTVSS
VL 1: DIVMTQSPLSLPVTPGEPASISCRSSQPLVHSNRNTYLHWYQKKPGQAPRLLIYKVSNRFSGVPDRFSGSGSGTDFTLKISRVEAEDVGVYYCGQGTQVPYTFGQGTKLEIK
VH 2: QVQLVESGGGLVQPGRSLRLSCAASGFKFSNVWFHWVRKAPGKGLEWVAQIKDYYNAYAAYYAPSVKGRFTISRDDSKNSIYLQMNSLKTEDTAVYYCHYVHYASASTLLPAEGVDAWGQGTTVTVSS
VL 2: DIVMTQSPLSLPVTPGEPASISCQPSQEVVHMNRNTYLHWYQEKPGQAPRLLIYKVSNRFPGVPDRFSGSGSGTDFTLKISRVEAEDVGVYYCAQGTSHPFTFGQGTKLEIK
notes: 1+1 tri-specific, FAST-Ig format; Full chains not tied by name
Broadly, the Kd is a measure of binding affinity in units of concentration. One may read the koff as the rate constant with which the complex falls apart. A low value points to a long-lived complex. For orientation: kon means the second-order rate constant of association. The low end stands for slower complex formation, the high end for faster complex formation. Consider B1, for which the “fold weaker binding affinity than CrossMab xSG1350” value in the assay with Human CD3eg linker [1] was ~3 fold. Moreover, in the assay with Human CD3eg linker [2], binding was put at a Kd of 751 nM, the koff was 0.0628 s⁻¹ and the kon is 83500 M⁻¹ s⁻¹. For the same molecule, in assay [3], the equilibrium dissociation constant (Kd) turned out to be 43.5 nM, the koff was 0.00063 s⁻¹ and the kon turned out to be 14500 M⁻¹ s⁻¹.

B2: xGPC3/DualAE15-xSG1350k1349hV11 (bispecific antibody, V domains shown)
VH 1: QVQLVQSGAEVKKPGASVTVSCKASGYTFTDYEMHWIRQPPGEGLEWIGAIDGPTPDTAYSEKFKGRVTLTADKSTSTAYMELSSLTSEDTAVYYCTRFYSYTYWGQGTLVTVSS
VL 1: DIVMTQSPLSLPVTPGEPASISCRSSQPLVHSNRNTYLHWYQQKPGQAPRLLIYKVSNRFSGVPDRFSGSGSGTDFTLKISRVEAEDVGVYYCGQGTQVPYTFGQGTKLEIK
VH 2: QVQLVESGGGLVQPGRSLRLSCAASGFKFSNVWFHWVRQAPGKGLEWVAQIKDYYNAYAGYYHPSVKGRFTISRDDSKNSIYLQMNSLKTEDTAVYYCHYVHYAAASQLLPAEGVDAWGQGTTVTVSS
VL 2: DIVMTQSPLSLPVTPGEPASISCQPSQEVVHMNRNTYLHWYQQKPGQAPRLLIYKVSNRFPGVPDRFSGSGSGTDFTLKISRVEAEDVGVYYCAQGTSHPFTFGQGTKLEIK
notes: 1+1 tri-specific, CrossMab format; Full chains not tied by name; also called xGPC3DualAE15-xSG1350kSG1349hV11; xGPC3/DualAE15-xSG1350kSG1349hV11
In the case of B2, the binding result (with Human CD3eg linker [4]; in assay [5]) was “binds” throughout.

B3: GPC3KE/DualAE05EK-SG1363k1365hV11 (bispecific antibody, V domains shown)
VH 1: QVQLVQSGAEVKKPGASVTVSCKASGYTFTDYEMHWIRKPPGEGLEWIGAIDGPTPDTAYSEKFKGRVTLTADKSTSTAYMELSSLTSEDTAVYYCTRFYSYTYWGQGTLVTVSS
VL 1: DIVMTQSPLSLPVTPGEPASISCRSSQPLVHSNRNTYLHWYQEKPGQAPRLLIYKVSNRFSGVPDRFSGSGSGTDFTLKISRVEAEDVGVYYCGQGTQVPYTFGQGTKLEIK
VH 2: QVQLVESGGGLVQPGRSLRLSCAASGFKFSNVWFHWVREAPGKGLEWVAQIKDYYNAYAAYYAPSVKGRFTISRDDSKNSIYLQMNSLKTEDTAVYYCHYVHYASASTLLPAEGVDAWGQGTTVTVSS
VL 2: DIVMTQSPLSLPVTPGEPASISCQPSQEVVHMNRNTYLHWYQKKPGQAPRLLIYKVSNRFPGVPDRFSGSGSGTDFTLKISRVEAEDVGVYYCAQGTSHPFTFGQGTKLEIK
notes: as for B1
As to B3, the “fold weaker binding affinity than CrossMab xSG1350” value with Human CD3eg linker [1] is ~3 fold. In the assay with Human CD3eg linker [2], the Kd was determined as 806 nM, the koff turned out to be 0.0611 s⁻¹ and the kon turned out to be 75900 M⁻¹ s⁻¹. In assay [3], the Kd is 38 nM, the off-rate constant (koff) is 0.000506 s⁻¹ and the kon was found to be 13300 M⁻¹ s⁻¹.
